System: peptide library, one residue held at a place counted from the S/T acceptor
Experiment: relative phosphorylation of the sub-library (ratio to the mean residue at this position); higher = residue favoured
Outline: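 Spots on streptavidin membranes were phosphorimaged and quantified by densitometry to measure phosphorylation of biotinylated degenerate peptide sub-libraries by purified recombinant kinases, human or orthologue constructs. The reactions ran in 384-well plates for 90 min under kinase-specific conditions, with peptides at 50 μM and 50 μM ATP spiked with γ-32P-ATP. Relative sub-library phosphorylation is the ratio to the mean residue at that position.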

TSSK6, construct: Full length, human, sequence (Q9BXA6 whole entry, looked up): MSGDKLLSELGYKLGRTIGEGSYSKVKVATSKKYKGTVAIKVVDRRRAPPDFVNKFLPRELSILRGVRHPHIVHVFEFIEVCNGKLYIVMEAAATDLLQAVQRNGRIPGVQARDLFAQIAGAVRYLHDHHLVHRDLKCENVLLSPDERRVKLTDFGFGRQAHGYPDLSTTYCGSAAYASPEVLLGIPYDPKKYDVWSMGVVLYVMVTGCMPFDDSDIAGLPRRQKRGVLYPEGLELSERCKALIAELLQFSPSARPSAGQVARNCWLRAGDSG

TSSK2, construct: Full length, human (from UniProt Q96PF2)
relative phosphorylation
Conditions	at +1	at +2	at +3	at +4	at -1	at -2	at -3	at -4	at -5
A fixed	0.97	0.852	0.804	0.774	1.18	1.86	1.24	1.3	1.2
D fixed	0.871	0.578	1.44	0.8	0.771	0.379	0.466	0.655	0.247
E fixed	1.25	0.793	0.998	0.629	0.932	0.42	0.671	1.04	0.216
F fixed	1.06	1.27	1.37	1.43	0.685	0.699	0.589	0.583	0.882
G fixed	0.625	0.388	0.688	0.663	0.74	0.939	1.19	1.22	0.439
H fixed	1.05	2.95	1.53	0.822	0.874	0.952	0.933	1.12	0.518
I fixed	0.683	1.3	0.642	1.47	0.673	0.954	0.734	0.816	1.75
K fixed	1.41	0.47	1.04	0.766	1.68	2.3	1.86	1.99	0.569
L fixed	0.92	1.27	0.834	1.98	0.847	0.55	0.67	0.877	3.08
M fixed	0.965	1.1	0.944	1.51	0.893	0.725	0.668	1.19	1.32
N fixed	1.25	0.861	1.49	0.942	0.96	1.17	0.824	0.829	0.393
P fixed	0.143	0.438	0.324	0.846	1.72	0.513	1.27	0.348	1.34
Q fixed	1.31	1.09	0.95	0.882	1.41	1.08	0.935	0.849	0.71
R fixed	1.78	0.574	1.11	0.648	1.49	1.77	2.96	1.85	0.952
V fixed	0.867	1.02	0.677	1.25	0.763	1.47	0.802	0.921	2.15
W fixed	0.789	0.915	1.28	0.941	0.6	0.452	0.598	0.594	0.541
Y fixed	1.06	1.13	0.887	0.646	0.788	0.779	0.587	0.808	0.69
pThr fixed	1.02	0.78	0.485	0.581	0.426	0.262	0.804	0.734	0.503
pTyr fixed	0.925	0.79	0.814	0.556	0.831	0.284	0.641	0.428	0.752

TSSK6, construct: Full length, human (from UniProt Q9BXA6)
relative phosphorylation
Conditions	at +1	at +2	at +3	at +4	at -1	at -2	at -3	at -4	at -5
A fixed	0.866	0.53	0.939	0.483	1.08	1.85	1.52	1.26	2.13
D fixed	0.814	0.32	1.61	0.385	0.442	0.203	0.21	0.354	0.243
E fixed	0.876	0.568	0.702	0.265	0.603	0.328	0.335	0.562	0.234
F fixed	0.806	1.16	1.03	1.5	0.537	0.586	0.45	0.532	0.466
G fixed	0.426	0.258	0.513	0.584	0.604	0.649	0.965	1.22	0.542
H fixed	1.23	3.4	1.89	0.696	0.82	0.868	0.848	1.32	0.607
I fixed	0.765	1.51	0.506	2.46	0.579	0.891	0.724	0.673	1.45
K fixed	1.45	0.403	1.09	0.543	2.1	3.12	2.57	2.67	0.911
L fixed	0.925	1.38	0.645	3.38	0.657	0.416	0.61	0.721	1.71
M fixed	1.16	1.69	0.825	1.68	0.874	0.629	0.779	0.968	0.703
N fixed	1.38	0.574	1.94	0.653	0.876	0.87	0.72	0.758	0.508
P fixed	0.155	0.299	0.204	0.591	1.83	0.446	1.35	0.544	1.46
Q fixed	1.56	0.847	1.02	0.605	1.35	1.23	0.962	0.943	0.999
R fixed	1.83	0.499	1.25	0.506	2.4	2.11	3.07	2.22	1.93
V fixed	0.932	0.96	0.59	1.42	0.804	1.55	0.773	0.938	1.73
W fixed	0.85	1.08	1.27	0.677	0.662	0.518	0.571	0.641	0.469
Y fixed	0.97	1.52	0.981	0.582	0.778	0.747	0.555	0.685	0.902
pThr fixed	0.547	0.29	0.216	0.269	0.566	0.279	0.724	0.748	0.793
pTyr fixed	0.534	0.459	0.32	0.268	0.417	0.427	0.519	0.447	0.752
